# According to patent US20220056142A1 (Sanofi, published 2022):
# Tests used:
# [1] = target: T1, FGFR3 fused to β-galactosidase fragments (FGFR3-PK and FGFR3-EA) co-expressed in U2OS cells; assay: cell-based or functional assay
# [2] = target: T1, FGFR3 fused to β-galactosidase …; assay: cell-based or functional assay; remark: listed apart in the source
# [3] = target: T2, wild-type human FGFR3 isoform IIIc, full length, expressed on transfected cells (human, UniProt P22607 23-806); assay: FACS, cells transfected with wild-type FGFR3
# T2 construct: also called wild-type FGFR3; FGFR3-300.19
# Method: (§1) After three washes, the cells were incubated with a fluorescent-conjugated secondary antibody (Invitrogen).
# [4] = target: T3, human FGFR3 G380R isoform IIIc, full length, expressed on transfected cells (human, UniProt P22607 23-806); assay: FACS, cells transfected with mutant FGFR3 (G380R)
# T3 construct: also called mutant FGFR3; FGFR3^G380R-300.19
# Method: as §1
# [5] = target: T4, WT PRCs (mouse, UniProt Q61851); assay: cell-based or functional assay
# [6] = target: T4, WT PRCs; assay: cell-based or functional assay; remark: listed apart in the source
# [7] = target: T4, WT PRCs; assay: cell-based or functional assay; remark: listed apart in the source
# [8] = target: T1, FGFR3 fused to β-galactosidase …; assay: cell-based or functional assay; remark: listed apart in the source
Binder,binding result [3],binding result [4],also measured
"KC18 (antibody, V domains shown) VH: QVQLQQSGAELVRPGASVTLSCKASGDTFTDFEIHWVKQTPVHGLEWIGDIDPETGGTAYNQKFRGRAMLTADRSSSTAYMELRSLTSEDSAVYYCTRTYDGYPYAMDYWGQGTSVTVSS VL: DIVMSQSPSSLAVSVGEKVTMSCKSSQSLLYSNNQKNYLAWYQQKPGQSPKLLIYWASTRESGVPDRFTGSGSGTDFTLTISSVKAEDLAVYYCQQYYSYRTFGGGTKLEIKR",–,–,"EC50, inhibition of FGF18-induced FGFR3 dimerization (RLU, beta-galactosidase complementation in U2OS cells); table column 'KC18 with FGF' [1]: 0.521 µg/mL"
"KE94 (antibody, V domains shown, Mouse hybridoma monoclonal antibody) VH: QVQLQQSGAELVRPGASVTLSCKASGSTFTDFEIHWVKQTPVHGLEWIGAIDPETGGTAYNQKFKGKAILTAVKSSSTAYMGLRSLTSEDSAVYYCTRNYDGYSRTMDYWGQGTSVTVSS VL: NIMMTQSPSSLAVSAGEKVTMSCKSSQSVLYSSNQKNYLAWYQQKPGQSPKLLIYWASTRESGVPDRFTGSGSGTDFSLSISSVQTEDLAVYYCHQYLSSYTFGGGTRLEMK",binds,binds,"EC50, inhibition of FGF18-induced FGFR3 dimerization (RLU, beta-galactosidase complementation in U2OS cells); fitted curve 'KE94 with FGF18' [2]: 0.102 µg/mL"
"KC18_Hu46 (antibody, human IgG1, kappa, V domains shown) VH: EVQLVQSGAEVKKPGATVKLSCKASGDTFTDFEIHWVQQAPGKGLEWIGDVDPETGGTAYAEKFQGRATLTADRSTDTAYLELSSLRSEDTAVYYCTRTYDGYPYAFDYWGQGTLVTVSS VL: DIVMTQSPDSLAVSLGERVTINCKSSQSVLYSDNQKNYLAWYQQKPGQSPKLLIYFASTRESGVPDRFSGSGSGTDFTLTISSVQAEDVAVYYCQQYYSYRTFGGGTKLEIKR",–,–,"IC50, inhibition of FGF18-stimulated Erk phosphorylation (pErk/Erk %, HTRF), 'Hu46 on WT PRCs' [5]: 0.55 µg/ml"
"KC18_Hu44 (antibody, human IgG1, kappa, V domains shown) VH: EVQLVQSGAEVKKPGATVKLSCKASGDTFTDFEIHWVQQAPGKGLEWIGDVDPETGGTAYAEKFQGRATLTADRSTDTAYLELSSLRSEDTAVYYCTRTYDGYPYAFDYWGQGTLVTVSS VL: not shown",–,–,"IC50, inhibition of FGF18-stimulated Erk phosphorylation (pErk/Erk ratio %, HTRF), 'Hu44 on WT PRCs' [6]: 0.32 µg/ml"
"KC18_Hu18 (antibody, human IgG1, kappa, V domains shown) VH: EVQLVQSGAEVKKPGATVKLSCKASGDTFTDFEIHWVQQAPGKGLEWIGDVDPETGGTAYAEKFQGRATLTADRSTDTAYMELSSLRSEDTAVYYCTRTYDGYPYAFDYWGQGTLVTVSS VL: not shown",–,–,"IC50, inhibition of FGF18-stimulated Erk phosphorylation (pErk/Erk %, HTRF), 'Hu18 on WT PRCs' [7]: 0.42 µg/ml"
"KE58 (antibody, V domains shown, Mouse hybridoma monoclonal antibody) VH: EVQLQQSGPDLVKPGASVKISCKASGYTVTDYYMNWVKQSHGKSLEWIGDINPNNGVTTYNQKFKDKATLTVDKSSSTAYMELRSLTSEDSAVYYCAREEDFDGFDYWGQGTTLTVSS VL: DIVMTQSHKFMSTSVGDRVSITCKASQDVSTGVAWYQQKPGQSPQLLIYWASTRHTGVPDRFTGSGSGTDYILTIRSVQAEDLALYYCQQHYSTPLTFGAGTKLELK",binds,binds,"EC50, inhibition of FGF18-induced FGFR3 dimerization (RLU, beta-galactosidase complementation in U2OS cells); fitted curve 'KE58 with FGF18' [8]: 0.423 µg/mL"
"KE35 (antibody, V domains shown, Mouse hybridoma monoclonal antibody) VH: EVQLQQSGPELVKPGASVKMSCKASGYTFTDYNMHWVKQSHGKSLEWIGYINPNNGGTRYNQKFKGKATLTVNKSSSTAYMELRSLTSEDSAVYYCARERDYDGAMDYWGQGTSVTVSS VL: DIQMTQSPSSLSASLGGKVTITCKASQDINKFIAWYQHKPGKGPRLLIHYTSTLQPGIPSRFSGSGSGRDYSFSISNLEPEDIATYYCLQYDNLLWTFGGGTKLEIK",binds,binds,–
"KE42 (antibody, V domains shown, Mouse hybridoma monoclonal antibody) VH: EVQLQQSGPELVKPGASVKMSCKASGYTFTDYNMHWVKQSHGKSLQWIGYINPNNGGTNYNQNFKDKATLTVNKSSTTAYMELRSLTSEDSAVYYCARERDYDGSMDFWGQGTSVTVSS VL: DIQMTQSPSSLSASLGGKVTITCKASQDINKFIAWYQHKPGKGPRLLIHYTSTLQPGIPSRFSGSGSGRDYSFSISNLEPEDIATYFCLQYDNLLWTFGGGTKLEIK",binds,binds,–
